Measured values from paper PMC3424545 (Nucleic Acids Research, 2012).

Biological target: T1, His6-tagged Mcm10 (human, UniProt Q7L590 1-875)
T1 sequence (looked up): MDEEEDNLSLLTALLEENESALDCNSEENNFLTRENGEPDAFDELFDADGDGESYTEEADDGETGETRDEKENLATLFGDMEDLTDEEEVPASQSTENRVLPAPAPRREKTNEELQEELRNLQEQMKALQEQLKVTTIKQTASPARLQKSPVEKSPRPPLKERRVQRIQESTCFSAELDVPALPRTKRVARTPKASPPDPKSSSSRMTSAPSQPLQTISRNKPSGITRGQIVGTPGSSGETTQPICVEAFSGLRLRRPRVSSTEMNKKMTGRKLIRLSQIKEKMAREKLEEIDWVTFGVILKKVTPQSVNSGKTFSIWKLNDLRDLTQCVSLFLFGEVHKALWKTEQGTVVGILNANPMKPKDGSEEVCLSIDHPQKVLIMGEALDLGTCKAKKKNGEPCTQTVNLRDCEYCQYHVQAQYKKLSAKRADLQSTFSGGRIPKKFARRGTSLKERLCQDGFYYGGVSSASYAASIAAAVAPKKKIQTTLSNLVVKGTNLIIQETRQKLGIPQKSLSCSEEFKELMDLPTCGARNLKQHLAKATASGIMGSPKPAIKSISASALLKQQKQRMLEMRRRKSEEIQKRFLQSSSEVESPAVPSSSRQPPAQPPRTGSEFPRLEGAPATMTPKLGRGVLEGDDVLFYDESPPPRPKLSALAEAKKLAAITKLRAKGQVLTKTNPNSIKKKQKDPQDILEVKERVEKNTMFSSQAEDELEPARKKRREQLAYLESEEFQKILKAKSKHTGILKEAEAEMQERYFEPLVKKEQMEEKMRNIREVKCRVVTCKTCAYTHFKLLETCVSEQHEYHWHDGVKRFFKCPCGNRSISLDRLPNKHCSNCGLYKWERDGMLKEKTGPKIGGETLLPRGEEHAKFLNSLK
Assay: pull-down

B1: GST-tagged C-terminus VprBP (864-1507) (domain or fragment)
chain: not shown
  binding result: binds
